# According to patent publication US20100048462A1, “TRUNCATED PTH PEPTIDES WITH A CYCLIC CONFORMATION” (Zealand Pharma A/S, priority 2006, published 2010):
# Bridge positions count the residues as written; N and C are the ends. Square brackets hold non-standard residues; d marks the D form. Peptide text beside a SMILES is read from it. I, II: the chains in the order shown. hArg = N=C(N)NCCCC[C@H](N)C(=O)O; Met(O) = CS(=O)CC[C@H](N)C(=O)O; Ac5c = NC1(C(=O)O)CCCC1; Aib = CC(C)(N)C(=O)O
# Key:
# Saos-2 PTH1R [1] = molecular target: T1, Saos-2 PTH1R (Homo sapiens, UniProt Q03431); assay: cAMP-efficacy assay in Saos-2 cells; assay type: cell-based; conditions: for EC50: cAMP, 100 μM IBMX, 37° C. 15 min, suffix of label = salt tested; for Emax ± SEM: relative effect to the control (SEQ ID NO: 32)
# T1 construct: endogenous in cells; host or cells: Saos-2
# T1 sequence (Q03431 27-593): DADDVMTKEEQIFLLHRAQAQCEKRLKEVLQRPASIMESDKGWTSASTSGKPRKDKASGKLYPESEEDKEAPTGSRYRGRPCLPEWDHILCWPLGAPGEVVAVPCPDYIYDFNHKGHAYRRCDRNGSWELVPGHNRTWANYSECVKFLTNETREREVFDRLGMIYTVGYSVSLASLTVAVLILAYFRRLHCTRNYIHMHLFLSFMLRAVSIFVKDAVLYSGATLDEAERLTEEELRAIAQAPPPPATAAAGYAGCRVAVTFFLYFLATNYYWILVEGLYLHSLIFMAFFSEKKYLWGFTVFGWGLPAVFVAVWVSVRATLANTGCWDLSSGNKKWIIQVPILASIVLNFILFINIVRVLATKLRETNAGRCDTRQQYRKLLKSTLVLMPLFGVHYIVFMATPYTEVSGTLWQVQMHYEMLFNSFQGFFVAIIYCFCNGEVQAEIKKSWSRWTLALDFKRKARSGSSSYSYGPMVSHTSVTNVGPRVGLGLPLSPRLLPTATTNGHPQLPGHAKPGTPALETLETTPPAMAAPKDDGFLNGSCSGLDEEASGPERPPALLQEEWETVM
# Method: Peptides were dissolved in phosphate buffered saline and further diluted in Tyrode's buffer (TB, Sigma-Aldrich) containing 0.1% BSA and 100 μM isobutyl-methyl-xanthine (IBMX, Sigma-Aldrich). Saos-2 cells were seeded at 50,000 cells/well in 96-microtiter plates and grown for two days before the efficacy assays. On the day of analysis, the growth medium was carefully removed by suction. Cells were washed once with 200 μl TB/0.1% BSA. The buffer was replaced with 100 μl reaction mixture (±test peptide), and incubated at 37° C. for 15 min. The reaction was stopped by addition of 25 μl of ice-cold 0.5 M HCl. Cells were in the following incubated on ice for 60 min. 75 μl acetate-buffer, pH6.2, was added to each well of a 96-well cAMP FlashPlate (Perkin-Elmer). […] FlashPlates were incubated overnight at 4° C., emptied by suction and counted in a TopCounter (Packard).
# Determinations were performed in single determinations or triplicates at all doses. […] Standards were included as single determinations, duplicates or triplicates in each experiment, preferentially on each plate.
# Concentration-dependent cAMP responses were imported into GraphPad Prism vers. 4 (GraphPad Software), transformed and plotted. […] Thus, a four-parameter logistic equation was used for determination of the EC50 values. Curves were fitted with a function for sigmoidal dose response curve (variable slope) non-linear fit Y=Bottom+(Top-Bottom)/(1+10̂((LogEC50−X)*HillSlope)) where X is the logarithm of concentration and Y is the response. Y starts at Bottom and goes to Top with a sigmoid shape. pEC50, Hill-coefficient and the maximally inducible concentration of cAMP (Emax) were evaluated.
# Overall statistical differences were analyzed with Statistica (Statsoft) using one-way ANOVA. Post-hoc comparisons were made by the use of Fisher's Least Significance Test. Results were considered significant, when p was lower than 0.05.
# Saos-2 PTH1R [2] = molecular target: Saos-2 PTH1R (UniProt Q03431); assay: cell-based or functional assay
compound,measurement,setting,value
CC[C@H](C)[C@H](NC(=O)[C@H](CCC(=O)O)NC(=O)C(C)(C)NC(=O)[C@@H](NC(=O)C1(N)CCCC1)C(C)C)C(=O)N[C@@H](CCC(N)=O)C(=O)N[C@@H](CC(C)C)C(=O)N[C@@H](CCSC)C(=O)N[C@@H](Cc1c[nH]cn1)C(=O)N[C@@H](CC(N)=O)C(=O)N[C@@H](CC(C)C)C(=O)NCC(=O)N[C@@H](CCCCN)C(=O)N[C@@H](Cc1c[nH]cn1)C(=O)N[C@@H](CC(C)C)C(=O)N[C@@H](CC(N)=O)C(=O)N[C@@H](CO)C(N)=O [SEQ ID NO: 35] (H-[Ac5c]V[Aib]EIQLMHNLGKHLNS-NH2),EC50,Saos-2 PTH1R [1],8130 nM
same,Emax ± SEM,Saos-2 PTH1R [1],1.20 ± 0.01
"CC[C@H](C)[C@H](NC(=O)[C@H](CCC(=O)O)NC(=O)C(C)(C)NC(=O)[C@@H](NC(=O)C1(N)CCCC1)C(C)C)C(=O)N[C@@H](CCC(N)=O)C(=O)N[C@@H](CC(C)C)C(=O)N[C@@H](CCSC)C(=O)N[C@@H](Cc1c[nH]cn1)C(=O)N[C@@H](CCC(N)=O)C(=O)N[C@@H](CCCCNC(=N)N)C(=O)N[C@@H](C)C(=O)N[C@@H](CCCCN)C(=O)N[C@@H](Cc1c[nH]c2ccccc12)C(=O)N[C@@H](CC(C)C)C(=O)N[C@@H](CC(N)=O)C(=O)N[C@@H](CC(=O)O)C(=O)O [SEQ ID NO: 38, H-Ac5c-Val-Aib-Glu-Ile-Gln-Leu-Met-His-Gln-Har-Ala-Lys-Trp-Leu-Asn-Asp-OH] (H-[Ac5c]V[Aib]EIQLMHQ[hArg]AKWLND-OH)",EC50,Saos-2 PTH1R [1],100 nM
same,Emax ± SEM,Saos-2 PTH1R [1],1.2
"CC[C@H](C)[C@H](NC(=O)[C@H](CCC(=O)O)NC(=O)C(C)(C)NC(=O)[C@@H](NC(=O)C1(N)CCCC1)C(C)C)C(=O)N[C@@H](CCC(N)=O)C(=O)N[C@@H](CC(C)C)C(=O)N[C@@H](CCSC)C(=O)N[C@@H](Cc1c[nH]cn1)C(=O)N[C@@H](CCC(N)=O)C(=O)N[C@@H](CCCCNC(=N)N)C(=O)N[C@@H](C)C(=O)N[C@H]1CCCCNC(=O)C[C@@H](C(N)=O)NC(=O)[C@H](CC(N)=O)NC(=O)[C@H](CC(C)C)NC(=O)[C@H](Cc2c[nH]c3ccccc23)NC(=O)[C@@H](NC(=O)[C@H](C)NC(=O)[C@H](CCCCNC(=N)N)NC(=O)[C@H](CCC(N)=O)NC(=O)[C@H](Cc2c[nH]cn2)NC(=O)[C@H](CCSC)NC(=O)[C@H](CC(C)C)NC(=O)[C@H](CCC(N)=O)NC(=O)[C@@H](NC(=O)[C@H](CCC(=O)O)NC(=O)C(C)(C)NC(=O)[C@@H](NC(=O)C2(N)CCCC2)C(C)C)[C@@H](C)CC)CCCCNC(=O)C[C@@H](C(N)=O)NC(=O)[C@H](CC(N)=O)NC(=O)[C@H](CC(C)C)NC(=O)[C@H](Cc2c[nH]c3ccccc23)NC1=O [SEQ ID NO: 39, (H-Ac5c-Val-Aib-Glu-Ile-Gln-Leu-Met-His-Gln-Har-Ala-Lys( )-Trp-Leu-Asn-Asp( )-NH2)2] (I: H-[Ac5c]V[Aib]EIQLMHQ[hArg]AKWLND-NH2 / II: H-[Ac5c]V[Aib]EIQLMHQ[hArg]AKWLND-NH2; amide I:13-II:17, I:17-II:13)",Emax ± SEM,Saos-2 PTH1R [1],0.95 ± 0.05
"CC[C@H](C)[C@H](NC(=O)[C@H](CCC(=O)O)NC(=O)C(C)(C)NC(=O)[C@@H](NC(=O)C1(N)CCCC1)C(C)C)C(=O)N[C@@H](CCC(N)=O)C(=O)N[C@@H](CC(C)C)C(=O)N[C@@H](CC[S+](C)[O-])C(=O)N[C@@H](Cc1c[nH]cn1)C(=O)N[C@@H](CCC(N)=O)C(=O)N[C@@H](CCCCNC(=N)N)C(=O)N[C@@H](C)C(=O)N[C@H]1CCCCNC(=O)C[C@@H](C(N)=O)NC(=O)[C@H](CC(N)=O)NC(=O)[C@H](CC(C)C)NC(=O)[C@H](Cc2c[nH]c3ccccc23)NC1=O (stereo partly drawn) [SEQ ID NO: 40, H-Ac5c-Val-Aib-Glu-Ile-Gln-Leu-Met(O)-His-Gln-Har-Ala-Lys( )-Trp-Leu-Asn-Asp( )-NH2] (H-[Ac5c]V[Aib]EIQL[Met(O)]HQ[hArg]AKWLND-NH2; lactam 13-17)",EC50,Saos-2 PTH1R [1],126 nM
same,Emax ± SEM,Saos-2 PTH1R [1],1.1
(H-Ac5c-Val-Aib-Glu-Ile-Gln-Leu-Met-His-Gln-Har-Ala-Lys( )-Trp-Leu-Asn-Asp( )-NH2)2 (peptide),"Emax, cAMP efficacy assay in Saos-2 cells (39T, trifluoroacetate salt) (relative to control (SEQ ID NO: 32))",Saos-2 PTH1R [2],0.95
same,"pEC50, cAMP efficacy assay in Saos-2 cells (39T, trifluoroacetate salt)",Saos-2 PTH1R [2],8.3 -log(M)
H-Ac5c-Val-Ac5c-Glu-Ile-Gln-Leu-Leu-His-Gln-Har-Ala-Lys( )-Trp-Leu-Asn-Asp( )-NH2 (peptide),"Emax, cAMP efficacy assay in Saos-2 cells (14T, trifluoroacetate salt) (relative to control (SEQ ID NO: 32))",Saos-2 PTH1R [2],1.03
same,"pEC50, cAMP efficacy assay in Saos-2 cells (14T, trifluoroacetate salt)",Saos-2 PTH1R [2],7.45 -log(M)
H-Ac5c-Val-Aib-Glu-Ile-Gln-Leu-Leu-His-Gln-Har-Ala-Lys( )-Trp-Leu-Asp-Asp( )-NH2 (peptide),"Emax, cAMP efficacy assay in Saos-2 cells (22T, trifluoroacetate salt) (relative to control (SEQ ID NO: 32))",Saos-2 PTH1R [2],1.08
same,"pEC50, cAMP efficacy assay in Saos-2 cells (22T, trifluoroacetate salt)",Saos-2 PTH1R [2],7.13 -log(M)
H-Ac5c-Val-Aib-Glu-Ile-Gln-Leu-Leu-His-Gln-Har-Arg-Lys( )-Trp-Leu-Asn-Asp( )-NH2 (peptide),"Emax, cAMP efficacy assay in Saos-2 cells (28T, trifluoroacetate salt) (relative to control (SEQ ID NO: 32))",Saos-2 PTH1R [2],0.95
same,"pEC50, cAMP efficacy assay in Saos-2 cells (28T, trifluoroacetate salt)",Saos-2 PTH1R [2],8.27 -log(M)
